Laboratory results from US20130273026A1, “COMPOSITION AND METHOD FOR MODULATING INFLAMMATORY MOLECULES WITH AMYLASE” (INTEGRATIVE ENZYMATICS, INC., priority 2012, published 2013).
Where a name gives a salt, the structure may show the parent alone.

Legend:
BKS.Cg-Dock7m mice [1] = assay: Urine Protein Urea/Creatinine ratio; assay type: in vivo; details: for Nephroprotective effect: from Protein Urea to Creatinine ratio
Method: (§1) BKS.Cg-Dock7m mice were treated with control and an Amylase compound according to an embodiment of the present invention. In the absence of treatment, the BKS.Cg-Dock7m mice are homozygous for the diabetes spontaneous mutation (Lepr^db) and become obese at approximately three to four weeks of age. […] At the beginning of the animal trial, the test animals were obese, severely hyperinsulemic and hyperglycemic. After 28 consecutive days of dosing, the animals were euthanized and tissue analyzed. Compounds described herein were tested against the positive control of Metformin hydrochloride (“Metformin”)
(§2) 1× (used synonymously with TV1) and 3× (used synonymously with TV2) doses of human alpha-Amylase enzyme (referred to herein as Test Compound 1) were determined to be 80 Units/Liter of blood volume and 240 Units/Liter of blood volume respectively. Animals were manually restrained and administered a target volume of 300 μL of phosphate buffered saline (PBS) (vehicle), by IP injection, once per day, on Days 1-28. Actual dose volumes changed throughout the study and ranged from 300 to 310 μL. Endpoints include daily clinical observations and body weights. Creatinine, insulin, Protein Urea/Creatinine levels, clinical pathology and gross pathology at necropsy were also obtained. The mice were euthanized and necropsied on Day 28.
Referring now to FIG. 11, Protein Urea/Creatinine Levels are measured and shown. Creatinine levels are directly related to muscle mass in mice and so higher Creatinine is correlated with higher muscle mass. A healthy Protein Urea to Creatinine level is 1. Higher levels imply kidney damage. […] Optimal Protein Urea: Creatinine is 1.

BKS.Cg-Dock7m mice [2] = assay: Body weight loss in diabetic obese mice; assay type: in vivo
Method: as §1
(§3) Animals were manually restrained and administered Metformin by oral gavage using a disposable gavage needle. The target dose was 5 mL/kg, and actual dose volumes ranged from 190 to 260 μL/animal.
(§4) Amylase was purchased from Abcam (product ID: ab77861) at a dilution of 340 Units/mL. Each animal was treated with Amylase to achieve a dilution of 80 Units/L of blood. The test compound was diluted in phosphate buffer saline (PBS) and each day the test animals were injected with 300 uL of the Amylase-PBS solution. For every 299.4 uL of PBS, 0.6 uL of Amylase was used to achieve a concentration of 80 Units/Liter assuming a body weight of 45 g. The aliquots were stored at −80 C.
Amylase was purchased from Abcam (product ID: ab77861) at a dilution of 340 Units/mL. Each animal was treated with Amylase to achieve a dilution of 240 Units/L of blood. The test compound was diluted in phosphate buffer saline (PBS) and each day the test animals were injected with 300 uL of the Amylase-PBS solution. For every 298.3 uL of PBS, 1.7 uL of Amylase was used to achieve a concentration of […] assuming a body weight of 45 g. The aliquots were stored at −80 degrees C.
as §2
Body weights were measured prior to the study for randomization. Additional weekly body weights were collected throughout the study. We also were interested in weight loss for the animals for various treatment regimens. Referring now to Table 1 weight loss data as a percent weight loss with the reference being the weight before any treatment is illustrated for each test group. […] As with the insulin data, there is a dose dependent trend between 1× and 3×. The higher dose of Test Compound 1 outperforms metformin.

BKS.Cg-Dock7m mice [3] = assay: Serum insulin ELISA in diabetic obese mice after 28 days of dosing; assay type: in vivo; details: for Serum insulin levels compared to vehicle control: at necropsy after 28 consecutive days, Test Compound 1 at 1× or 3× IP, Metformin oral gavage
Method: as §1, §3, §4
Amylase was purchased from Abcam (product ID: ab77861) at a dilution of 340 Units/mL. Each animal was treated with Amylase to achieve a dilution of 240 Units/L of blood. […]
1× (used synonymously with TV1) and 3× (used synonymously with TV2) doses of human alpha-Amylase enzyme (referred to herein as Test Compound 1) were determined to be 80 Units/Liter of blood volume and 240 Units/Liter of blood volume respectively. […]
Referring now to FIG. 9, insulin values were measured in serum from four animals from each treatment group at the time of necropsy following 28 consecutive days of dosing with Control (metformin), Test Compound 1 (SEQ ID NO 1), or vehicle alone. […] The processed plates were read using a Molecular Devices VersaMax plate reader.

IgE = assay: Co-immunoprecipitation of Amylase and IgE; assay type: binding
Method: Referring now to FIG. 3, an immunoblot is shown having samples in lanes 1-8. The samples are prepared as follows. 10 μg of Amylase was mixed with 1 μg of IgE and incubated overnight at 4° C. and then for one hour at 37° C. Anti-Amylase antibody was used for immunoprecipitation. Anti-IgE antibody was used for immunoblotting. BSA was used as a competitive binding control. A sample with no IgE and […] of BSA+10 microgram of Amylase (lane 2) was used as negative control for immunoblotting. (Lanes 3 and 4 represent 0.5 μg BSA, lanes 5 and 6 represent 0.5 μg BSA and lanes 7 and 8 represent 0.05 μg BSA). After immunoprecipitation, pellets were dissolved in 45 microliters of Laemmli sample buffer and 15 microliters were loaded on the gel. 1 microgram of IgE was used as positive control (lane 1).
Referring now to FIG. 2, an immunoblot is shown having samples in lanes 1-8. The samples are prepared as follows.

BKS.Cg-Dock7m mice [4] = assay: Urine creatinine vs percentage of total weight loss; assay type: in vivo; details: 1× dose
Method: as §1
as §2, with “Creatinine, insulin, Protein Urea/Creatinine levels, clinical pathology and gross pathology at necropsy were also obtained. The mice were euthanized and necropsied on Day 28.” left out
The source of the weight loss, (whether fat or muscle) is physiologically critical. […] Referring now to FIG. 10, to quantify the source of the weight loss, we examined urine creatinine levels in the test animals. […]

Mast cells = assay: Histamine ELISA of IgE/anti-IgE-induced mast cell degranulation; assay type: cell-based; details: for Histamine release (ELISA): 1× (100 Units/L) and 10× (1000 Units/L) Amylase, IgE + anti-IgE
Method: Referring now to FIG. 1, Mast cells were treated with IgE, anti-IgE and varying doses of alpha-Amylase in a medium that would permit binding. In this experiment, Mast cells were grown to confluence, harvested and resuspended in 8 ml PBS and a 3 ml aliquot was plated in triplicate. 0.29 ml (100 Units) of Amylase was added to 0.7 mL PBS bringing the total volume to 1 mL. 3 μL was used in the 1× Amylase dose and 30 μL was used in the 10× Amylase dose. 1 set of triplicates was incubated with 1× Amylase (100 Units/L) and the second set with 10× Amylase (1000 Units/L). After 10 minutes, 250 μL of IgE was added, and then 200 μL of anti-IgE. The cells were incubated at 37 degrees Celsius during this time. 50 μL was taken at 1 hour, 2.5 hours and 4 hours and subjected to histamine level analysis via ELISA. A control set was co-incubated with PBS.
Anti-IgE when added to IgE-incubated Mast cells causes degranulation. Histamine release occurs during degranulation. Measurements were taken from all three subsets at 1 hour, 2.5 hours and 4 hours and subjected to analysis of histamine levels by ELISA from Oxford Biolabs. FIG. 1 is a graph of the results of an ELISA in which histamine levels are measured. Higher absorbance rates correlate to lower levels of Histamine.
Degranulation based upon the Immunoglobulin-E (IgE)-Anti-IgE reaction is well documented in the literature. Histamine levels were detected by an ELISA kit and served as a marker for degranulation. […] This implies that cellular degranulation was prevented in a time and dose-dependent manner by the addition of Amylase.

[5] = Metformin positive control, oral gavage
[6] = 1X dose (80 Units/Liter of blood volume) IP daily
[7] = 3X dose (240 Units/Liter of blood volume) IP daily

For `CN(C)C(=N)N=C(N)N` [Metformin, Metformin hydrochloride, reference compound], the Nephroprotective effect (BKS.Cg-Dock7m mice [1]) was “nephroprotective”, the “Body Weight % Lost, % Weight loss n = 4” value (BKS.Cg-Dock7m mice [2]; [5]) was 7% and the “Body Weight % Lost, % Weight loss n = 6” value (BKS.Cg-Dock7m mice [2]; [5]) was 6.9%. For the same molecule, the “Body Weight % Lost, % Weight loss raw” value (BKS.Cg-Dock7m mice [2]; [5]) was 7.4% and the “Serum insulin levels compared to vehicle control” value (BKS.Cg-Dock7m mice [3]) was “moderate decreases in serum insulin levels compared to vehicle control animals”.

B1: Test Compound 1: human alpha-Amylase enzyme (SEQ ID NO 1, pancreatic Amylase alpha 2A), purchased from Abcam (product ID: ab77861) (protein)
chain: QYSPNTQQGRTSIVHLFEWRWVDIALECERYLAPKGFGGVQVSPPNENVAIYNPFRPWWERYQPVSYKLCTRSGNEDEFRNMVTRCNNVGVRIYVDAVINHMCGNAVSAGTSSTCGSYFNPGSRDFPAVPYSGWDFNDGKCKTGSGDIENYNDATQVRDCRLTGLLDLALEKDYVRSKIAEYMNHLIDIGVAGFRLDASKHMWPGDIKAILDKLHNLNSNWFPAGSKPFIYQEVIDLGGEPIKSSDYFGNGRVTEFKYGAKLGTVIRKWNGEKMSYLKNWGEGWGFVPSDRALVFVDNHDNQRGHGAGGASILTFWDARLYKMAVGFMLAHPYGFTRVMSSYRWPRQFQNGNDVNDWVGPPNNNGVIKEVTINPDTTCGNDWVCEHRWRQIRNMVIFRNVVDGQPFTNWYDNGSNQVAFGRGNRGFIVFNNDDWSFSLTLQTGLPAGTYCDVISGDKINGNCTGIKIYVSDDGKAHFSISNSAEDPFIAIHAESKL
modifications: homo sapien
For B1, the “Amylase co-immunoprecipitation with IgE” value (IgE; 1 μg IgE + 0.5, 5, 10 μg Amylase, anti-IgE immunoprecipitation, anti-Amylase immunoblot) was “binding of Amylase and IgE was observed to behave in a dose-dependent manner”, the “IgE co-immunoprecipitation with Amylase” value (IgE; 10 μg Amylase + 1 μg IgE, anti-Amylase immunoprecipitation, anti-IgE immunoblot, BSA as competitive binding control) was “IgE immunoprecipitated with Amylase under conditions of increasing concentrations of BSA, demonstrating little non-specific binding” and the “Source of the weight loss (fat or muscle) from urine creatinine” value (BKS.Cg-Dock7m mice [4]) was “the majority of weight lost is fat content and muscle mass is preserved”. The “Histamine release (ELISA)” value (Mast cells; 1 hour, vs PBS control) was “the levels of Histamine released in the 1× and 10× doses were the same, with higher release in the negative control”, the “Histamine release (ELISA)” value (Mast cells; 2.5 hours) was “dose dependency with less histamine release compared to 1 hour” and the “Histamine release (ELISA)” value (Mast cells; 4 hours) was “greater histamine release in the 1× and 10× doses”. The “Histamine levels as marker for degranulation” value (Mast cells; overall, samples treated with Amylase, 1 to 4 hours, 1× and 10×) was “lower in a manner that was both time and dose dependent”, the Nephroprotective effect (BKS.Cg-Dock7m mice [1]) was “nephroprotective” and the “Protein Urea to Creatinine ratio in urine” value (BKS.Cg-Dock7m mice [1]; treatment group 2 (1× dose) vs group 4 (metformin) and group 1 (vehicle)) was “lower Protein Urea to Creatinine ratio compared to urine from animals in treatment group 4 or animals in treatment group 1”. For the same molecule, the “Body Weight % Lost, % Weight loss n = 4” value (BKS.Cg-Dock7m mice [2]; [6]) was 5%, the “Body Weight % Lost, % Weight loss n = 6” value (BKS.Cg-Dock7m mice [2]; [6]) was 5.2% and the “Body Weight % Lost, % Weight loss raw” value (BKS.Cg-Dock7m mice [2]; [6]) was 5.5%. The “Weight loss compared with metformin” value (BKS.Cg-Dock7m mice [2]; 1× and 3× doses) was “dose-dependency in weight loss with our 1× of Test Compound 1 and 3× of Test Compound 1 doses outperforming metformin”, the “Body Weight % Lost, % Weight loss n = 4” value (BKS.Cg-Dock7m mice [2]; [7]) was 10% and the “Body Weight % Lost, % Weight loss n = 6” value (BKS.Cg-Dock7m mice [2]; [7]) was 8.3%. For the same molecule, the “Body Weight % Lost, % Weight loss raw” value (BKS.Cg-Dock7m mice [2]; [7]) was 7.4%, the “Change in insulin levels” value (BKS.Cg-Dock7m mice [3]; Treatment Group 3: 3× dose (240 Units/liter of blood volume) IP, 28 days) was “did exhibit a change in insulin levels” and the “Serum insulin levels compared to vehicle control” value (BKS.Cg-Dock7m mice [3]) was “moderate decreases in serum insulin levels compared to vehicle control animals”.
